Source: the supplement of paper PMC11246515
± gives the standard deviation of the averaged measurements.

Assay: total protein half-life in vivo (active degradation + dilution); higher = more stable protein
[1] = E. coli NCM3722 delta-clpP delta-lon delta-hslV, growth: N-lim chemostat, doubling time 6 h
[2] = E. coli NCM3722 delta-clpP, growth: N-lim chemostat, doubling time 6 h
[3] = E. coli NCM3722 delta-hslV, growth: N-lim chemostat, doubling time 6 h
[4] = E. coli NCM3722 delta-lon, growth: N-lim chemostat, doubling time 6 h
[5] = E. coli NCM3722 delta-smpB, growth: N-lim chemostat, doubling time 6 h
[6] = wild type E. coli NCM3722, growth: C-lim chemostat, doubling time 3 h
[7] = wild type E. coli NCM3722, growth: C-lim chemostat, doubling time 6 h
[8] = wild type E. coli NCM3722, growth: C-lim chemostat, doubling time 12 h
[9] = wild type E. coli NCM3722, growth: N-lim chemostat, doubling time 6 h
[10] = wild type E. coli NCM3722, growth: N-lim chemostat, doubling time 12 h
[11] = wild type E. coli NCM3722, growth: P-lim chemostat, doubling time 6 h
[12] = wild type E. coli NCM3722, growth: P-lim chemostat, doubling time 12 h

Sequence	total protein half-life in vivo [1] [h]	total protein half-life in vivo [2] [h]	total protein half-life in vivo [3] [h]	total protein half-life in vivo [4] [h]	total protein half-life in vivo [5] [h]	total protein half-life in vivo [6] [h]	total protein half-life in vivo [7] [h]	total protein half-life in vivo [8] [h]	total protein half-life in vivo [9] [h]	total protein half-life in vivo [10] [h]	total protein half-life in vivo [11] [h]	total protein half-life in vivo [12] [h]
MTSLVSLENVSVSFGQRRVLSDVSLELKPGKILTLLGPNGAGKSTLVRVVLGLVTPDEGVIKRNGKLRIGYVPQKLYLDTTLPLTVNRFLRLRPGTHKEDILPALKRVQAGHLINAPMQKLSGGETQRVLLARALLNRPQLLVLDEPTQGVDVNGQVALYDLIDQLRRELDCGVLMVSHDLHLVMAKTDEVLCLNHHICCSGTPEVVSLHPEFISMFGPRGAEQLGIYRHHHNHRHDLQGRIVLRRGNDRS [P0A9X1]	5.6 ± 0.31	5.12 ± 0.41	2.88 ± 1.1	2 ± 0.1	4.75 ± 2.8	2.63 ± 0.088	4.39 ± 0.11	6.41 ± 2.1	2.6 ± 0.37	5.01 ± 2	4.12 ± 0.059	7.83 ± 2
MNKKIHSLALLVNLGIYGVAQAQEPTDTPVSHDDTIVVTAAEQNLQAPGVSTITADEIRKNPVARDVSKIIRTMPGVNLTGNSTSGQRGNNRQIDIRGMGPENTLILIDGKPVSSRNSVRQGWRGERDTRGDTSWVPPEMIERIEVLRGPAAARYGNGAAGGVVNIITKKGSGEWHGSWDAYFNAPEHKEEGATKRTNFSLTGPLGDEFSFRLYGNLDKTQADAWDINQGHQSARAGTYATTLPAGREGVINKDINGVVRWDFAPLQSLELEAGYSRQGNLYAGDTQNTNSDSYTRSKYGDETNRLYRQNYALTWNGGWDNGVTTSNWVQYEHTRNSRIPEGLAGGTEGKFNEKATQDFVDIDLDDVMLHSEVNLPIDFLVNQTLTLGTEWNQQRMKDLSSNTQALTGTNTGGAIDGVSTTDRSPYSKAEIFSLFAENNMELTDSTIVTPGLRFDHHSIVGNNWSPALNISQGLGDDFTLKMGIARAYKAPSLYQTNPNYILYSKGQGCYASAGGCYLQGNDDLKAETSINKEIGLEFKRDGWLAGVTWFRNDYRNKIEAGYVAVGQNAVGTDLYQWDNVPKAVVEGLEGSLNVPVSETVMWTNNITYMLKSENKTTGDRLSIIPEYTLNSTLSWQAREDLSMQTTFTWYGKQQPKKYNYKGQPAVGPETKEISPYSIVGLSATWDVTKNVSLTGGVDNLFDKRLWRAGNAQTTGDLAGANYIAGAGAYTYNEPGRTWYMSVNTHF	–	5.83	–	–	–	3.068 ± 0.0056	7.39 ± 0.36	14.5 ± 2.1	6.97	–	6.6	12.3
MEYFDMRKMSVNLWRNAAGETREICTFPPAKRDFYWRASIASIAANGEFSLFPGMERIVTLLEGGEMLLESADRFNHTLKPFQPFAFAADQVVKAKLTAGQMSMDFNIMTRLDVCKAKVRIAERTFTTFGSRGGVVFVINGAWQLGDKLLTTDQGACWFDGRHTLRLLQPQGKLLFSEINWLAGHSPDQVQ	–	–	–	–	–	0.307	–	–	–	–	–	–
MNLHEYQAKQLFARYGLPAPVGYACTTPREAEEAASKIGAGPWVVKCQVHAGGRGKAGGVKVVNSKEDIRAFAENWLGKRLVTYQTDANGQPVNQILVEAATDIAKELYLGAVVDRSSRRVVFMASTEGGVEIEKVAEETPHLIHKVALDPLTGPMPYQGRELAFKLGLEGKLVQQFTKIFMGLATIFLERDLALIEINPLVITKQGDLICLDGKLGADGNALFRQPDLREMRDQSQEDPREAQAAQWELNYVALDGNIGCMVNGAGLAMGTMDIVKLHGGEPANFLDVGGGATKERVTEAFKIILSDDKVKAVLVNIFGGIVRCDLIADGIIGAVAEVGVNVPVVVRLEGNNAELGAKKLADSGLNIIAAKGLTDAAQQVVAAVEGK [P0A836]	4.73 ± 0.42	4.59 ± 0.34	4.45 ± 0.2	4.87 ± 0.23	4.18 ± 0.058	3.08 ± 0.061	5.79 ± 0.26	10.5 ± 1.7	4.46 ± 0.14	7.39 ± 0.36	5.95 ± 0.15	12.2 ± 1.2
MIIATAGHVDHGKTTLLQAITGVNADRLPEEKKRGMTIDLGYAYWPQPDGRVPGFIDVPGHEKFLSNMLAGVGGIDHALLVVACDDGVMAQTREHLAILQLTGNPMLTVALTKADRVDEARVDEVERQVKEVLREYGFAEAKLFITAATEGRGMDALREHLLQLPEREHASQHSFRLAIDRAFTVKGAGLVVTGTALSGEVKVGDSLWLTGVNKPMRVRALHAQNQPTETANAGQRIALNIAGDAEKEQINRGDWLLADVPPEPFTRVIVELQTHTPLTQWQPLHIHHAASHVTGRVSLLEDNLAELVFDTPLWLADNDRLVLRDISARNTLAGARVVMLNPPRRGKRKPEYLQWLASLARAQSDADALSVHLERGAVNLADFAWARQLNGEGMRELLQQPGYIQAGYSLLNAPVAARWQRKILDTLATYHEQHRDEPGPGRERLRRMALPMEDEALVLLLIEKMRESGDIHSHHGWLHLPDHKAGFSEEQQAIWQKAEPLFGDEPWWVRDLAKETGTDEQAMRLTLRQAAQQGIITAIVKDRYYRNDRIVEFANMIRDLDQECGSTCAADFRDRLGVGRKLAIQILEYFDRIGFTRRRGNDHLLRDALLFPEK	6.2 ± 0.45	4.93 ± 0.33	5.22 ± 0.44	5.39 ± 0.23	4.57 ± 0.11	2.77 ± 0.057	5.56 ± 0.59	9.26 ± 0.52	4.97 ± 0.16	8.6 ± 0.22	4.25 ± 0.27	6.81 ± 0.26
MNRIEHYHDWLRDAHAMEKQAESMLESMASRIDNYPELRARIEQHLSETKNQIVQLETILDRNDISRSVIKDSMSKMAALGQSIGGIFPSDEIVKGSISGYVFEQFEIACYTSLLAAAKNAGDTASIPTIEAILNEEKQMADWLIQNIPQTTEKFLIRSETDGVEAKK	4.867 ± 0.043	4.24 ± 0.64	6.68 ± 0.67	4.5 ± 0.39	3.94 ± 0.3	3.17 ± 0.17	5.22 ± 0.1	10.5 ± 1.5	4.14 ± 0.32	6.67 ± 0.1	5.2 ± 0.7	11.1 ± 0.76
MAIKKRSATVVPGASGAAAAVKNPQASKTSFWGELPQHVMSGISRMVPTLIMGGVILAFSQLIAYSWLKIPAEIGIMDALNSGKFSGFDLSLLKFAWLSQSFGGVLFGFAIPMFAAFVANSIGGKLAFPAGFIGGLMSTQPTQLLNFDPSTMQWATSSPVPSTFIGALIISIVAGYLVKWMNQKIQLPDFLLAFKTTFLLPILSAIFVMLAMYYVITPFGGWINGGIRTVLTAAGEKGALMYAMGIAAATAIDLGGPINKAAGFVAFSFTTDHVLPVTARSIAIVIPPIGLGLATIIDRRLTGKRLFNAQLYPQGKTAMFLAFMGISEGAIPFALESPITAIPSYMVGAIVGSTAAVWLGAVQWFPESAIWAWPLVTNLGVYMAGIALGAVITALMVVFLRLMMFRKGKLLIDSL	–	–	–	–	–	2.72	4.59 ± 0.42	6.4	–	–	–	–
